In the supplement of paper PMC7125110:
± gives the standard error. For some of these results: Fewer inactive variants are shown than the library holds.

B1: glmS ribozyme (parent)
chain: AUAAAAGCGCCAGAACUACAGAAAUGUAGUUGACGAGGAGGAGGUUUAUCGAAUUUUCGGCGGAUGCCUCCAAA

What was measured:
Conditions in all cases: with glucosamine-6-phosphate
[1] = variants of: B1; assay: kcat; higher = faster cleavage; RNA array
How it was run: (§1)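 Barcoded ribozyme variants, transcribed in situ by E. coli RNA polymerase on sequenced MiSeq chips, were followed via a hybridised Cy3 probe at 37 °C. Glucosamine-6-phosphate ranged from 40 μM to 10 mM in HEPES/KCl/Mg(OAc)2 buffer. kobs came from decay fits to per-tile medians, and kcat and KM from weighted Michaelis–Menten fits.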

[2] = variants of: B1; assay: self-cleavage kobs at 10000 uM GlcN6P; higher = faster cleavage; RNA array
How it was run: as §1

[3] = variants of: B1; assay: KM; higher = weaker cofactor use; RNA array
How it was run: as §1

[4] = variants of: B1; assay: self-cleavage kobs at 160 uM GlcN6P; higher = faster cleavage; RNA array
How it was run: as §1

[5] = variants of: B1; assay: self-cleavage kobs at 640 uM GlcN6P; higher = faster cleavage; RNA array
How it was run: as §1

[6] = variants of: B1; assay: self-cleavage kobs at 2500 uM GlcN6P; higher = faster cleavage; RNA array
How it was run: as §1

[7] = variants of: B1; assay: self-cleavage kobs at 40 uM GlcN6P; higher = faster cleavage; RNA array
How it was run: as §1

Row | Variant | kcat [1] | self-cleavage kobs at 10000 uM GlcN6P [2] | KM [3] | self-cleavage kobs at 160 uM GlcN6P [4] | self-cleavage kobs at 640 uM GlcN6P [5] | self-cleavage kobs at 2500 uM GlcN6P [6] | self-cleavage kobs at 40 uM GlcN6P [7]
1 | C19A G59U | 0.000115 ± 2.9e-05 s⁻¹ | 3.11e-05 ± 1.5e-05 s⁻¹ |  |  |  |  | 
2 | A15G G32U | 0.00117 ± 2.6e-05 s⁻¹ | 0.000917 ± 0.00013 s⁻¹ | 2990 ± 100 µM | 6.02e-05 ± 1.1e-05 s⁻¹ | 0.000208 ± 2.6e-05 s⁻¹ | 0.000525 ± 5.2e-05 s⁻¹ | 
3 | U30C C70G | 5.67e-05 ± 5.3e-06 s⁻¹ | 5.52e-05 ± 1e-05 s⁻¹ |  | 5.73e-05 ± 1.4e-05 s⁻¹ | 6.49e-05 ± 1.1e-05 s⁻¹ | 4.88e-05 ± 9e-06 s⁻¹ | 
4 | G40A G66C | 0.000903 ± 0.00019 s⁻¹ | 0.000774 ± 9.9e-05 s⁻¹ | 2220 ± 740 µM | 6.89e-05 ± 1.1e-05 s⁻¹ | 0.000166 ± 3.2e-05 s⁻¹ | 0.00045 ± 8.6e-05 s⁻¹ | 3.77e-05 ± 1.3e-05 s⁻¹
5 | A39U G44A | 0.00136 ± 0.00031 s⁻¹ | 0.00144 ± 0.00021 s⁻¹ | 572 ± 210 µM | 0.00021 ± 3.9e-05 s⁻¹ | 0.00078 ± 9.9e-05 s⁻¹ | 0.001 ± 0.00017 s⁻¹ | 0.000115 ± 1.3e-05 s⁻¹
6 | A15U C50G A53U U55A | 3.35e-05 ± 1.6e-05 s⁻¹ |  |  |  |  | 4.02e-05 ± 1.8e-05 s⁻¹ | 
7 | A12C G29C | 0.00327 ± 0.00068 s⁻¹ | 0.00271 ± 0.00022 s⁻¹ | 2770 ± 820 µM | 0.000193 ± 2.7e-05 s⁻¹ | 0.000508 ± 5.3e-05 s⁻¹ | 0.00139 ± 0.00023 s⁻¹ | 6.03e-05 ± 6.2e-06 s⁻¹
8 | A15U C68G | 4.37e-05 ± 1e-05 s⁻¹ |  |  |  | 2.81e-05 ± 1.4e-05 s⁻¹ | 4.48e-05 ± 1e-05 s⁻¹ | 
9 | C16G C67U | 0.000669 ± 7.7e-05 s⁻¹ | 0.000642 ± 8.6e-05 s⁻¹ | 736 ± 160 µM | 0.000106 ± 1.5e-05 s⁻¹ | 0.000318 ± 3.4e-05 s⁻¹ | 0.000504 ± 6.2e-05 s⁻¹ | 4.87e-05 ± 9.4e-06 s⁻¹
10 | G13C C68U | < 1e-05 s⁻¹ |  |  | < 1e-05 s⁻¹ | < 1e-05 s⁻¹ |  | < 1e-05 s⁻¹
11 | C58A C71U | 0.00051 ± 0.0001 s⁻¹ | 0.000386 ± 3.2e-05 s⁻¹ | 3890 ± 1200 µM | 4.42e-05 ± 1.2e-05 s⁻¹ | 7.43e-05 ± 7.2e-06 s⁻¹ | 0.000183 ± 1.6e-05 s⁻¹ | 
12 | A33U G41A U54G | 3.66e-05 ± 1.4e-06 s⁻¹ | 2.88e-05 ± 1.2e-05 s⁻¹ | 2720 ± 360 µM |  |  |  | 
13 | G32U G51U U55A | 1.45e-05 ± 2.5e-06 s⁻¹ |  |  |  |  |  | 
14 | G38U C67G | 1.53e-05 ± 7.3e-06 s⁻¹ |  |  |  |  |  | 
15 | A12U U57A | 0.00082 ± 0.00011 s⁻¹ | 0.000604 ± 8.4e-05 s⁻¹ | 4040 ± 880 µM | 4.56e-05 ± 1.7e-05 s⁻¹ | 0.000113 ± 2e-05 s⁻¹ | 0.000287 ± 5e-05 s⁻¹ | 
16 | A52U C70A | 5.6e-05 ± 1.2e-05 s⁻¹ | 4.7e-05 ± 1e-05 s⁻¹ |  | 3.06e-05 ± 1.5e-05 s⁻¹ | 3.63e-05 ± 1.3e-05 s⁻¹ | 8.32e-05 ± 1.6e-05 s⁻¹ | 
17 | C10A C61A | 2.22e-05 ± 9.1e-06 s⁻¹ |  |  |  |  |  | < 1e-05 s⁻¹

Row | Variant | kcat [1] | self-cleavage kobs at 10000 uM GlcN6P [2] | KM [3] | self-cleavage kobs at 160 uM GlcN6P [4] | self-cleavage kobs at 640 uM GlcN6P [5] | self-cleavage kobs at 2500 uM GlcN6P [6] | self-cleavage kobs at 40 uM GlcN6P [7]
18 | G32A C50U C70A | 3.48e-05 ± 1.3e-05 s⁻¹ |  |  |  |  | 5.7e-05 ± 1.9e-05 s⁻¹ | 
19 | A39G U47A | 0.0304 ± 0.014 s⁻¹ | 0.0441 ± 0.011 s⁻¹ |  | 0.00231 ± 0.00088 s⁻¹ | 0.00788 ± 0.0025 s⁻¹ | 0.0164 ± 0.005 s⁻¹ | 0.00119 ± 0.00019 s⁻¹
20 | A14G G60A C70G | 1.55e-05 ± 4e-06 s⁻¹ |  |  |  |  |  | < 1e-05 s⁻¹
21 | G13A U56G | 0.000892 ± 0.0002 s⁻¹ | 0.000696 ± 8.2e-05 s⁻¹ | 3800 ± 1300 µM | 4.73e-05 ± 9.8e-06 s⁻¹ | 0.000128 ± 1.8e-05 s⁻¹ | 0.000264 ± 5.9e-05 s⁻¹ | 
22 | A12U U31C | 0.011 ± 0.0038 s⁻¹ | 0.0101 ± 0.0026 s⁻¹ | 2070 ± 880 µM | 0.000727 ± 0.00017 s⁻¹ | 0.00178 ± 0.00062 s⁻¹ |  | 0.000254 ± 4.3e-05 s⁻¹
23 | G35A C50G | 0.000781 ± 0.00018 s⁻¹ |  | 1190 ± 540 µM |  | 0.000273 ± 0.00012 s⁻¹ | 0.000615 ± 0.00015 s⁻¹ | 
24 | G32U G40U | 0.000265 ± 3e-05 s⁻¹ | 0.000153 ± 1.6e-05 s⁻¹ | 7170 ± 1300 µM |  | 1.68e-05 ± 7.3e-06 s⁻¹ | 7.08e-05 ± 7.2e-06 s⁻¹ | 
25 | A33U C70G | 1.5e-05 ± 1.8e-06 s⁻¹ |  |  |  |  |  | 
26 | C58U A64C C70A | 1.83e-05 ± 1.5e-06 s⁻¹ |  | 363 ± 120 µM |  |  |  | < 1e-05 s⁻¹
27 | U46C A53U | 0.00168 ± 0.00018 s⁻¹ | 0.00133 ± 0.00028 s⁻¹ | 1640 ± 260 µM | 0.000145 ± 3.3e-05 s⁻¹ | 0.000471 ± 9.9e-05 s⁻¹ | 0.0012 ± 0.00023 s⁻¹ | 3.88e-05 ± 1.2e-05 s⁻¹
28 | U47G G66U | 0.000146 ± 7.9e-06 s⁻¹ | 0.000142 ± 1.4e-05 s⁻¹ | 756 ± 130 µM | 3.12e-05 ± 1.5e-05 s⁻¹ | 6.79e-05 ± 8.7e-06 s⁻¹ | 0.000106 ± 1.1e-05 s⁻¹ | 
29 | A39U A48U | 0.000306 ± 1.3e-05 s⁻¹ | 0.000257 ± 2.2e-05 s⁻¹ | 1710 ± 170 µM |  | 8.14e-05 ± 9.1e-06 s⁻¹ | 0.000201 ± 2.9e-05 s⁻¹ | 
30 | U46A G62A | < 1e-05 s⁻¹ |  |  |  |  | < 1e-05 s⁻¹ | < 1e-05 s⁻¹
31 | G13C A42G | 0.00017 ± 1.8e-05 s⁻¹ | 0.000123 ± 1.8e-05 s⁻¹ | 4030 ± 920 µM |  | 3.16e-05 ± 1.6e-05 s⁻¹ | 6.19e-05 ± 1.3e-05 s⁻¹ | < 1e-05 s⁻¹
32 | A15C U31A | 0.00691 ± 0.0013 s⁻¹ | 0.0067 ± 0.001 s⁻¹ | 1860 ± 480 µM | 0.000607 ± 0.00013 s⁻¹ | 0.0015 ± 0.00035 s⁻¹ | 0.00303 ± 0.00078 s⁻¹ | 0.000156 ± 2.2e-05 s⁻¹
33 | G43U U54A U55A C67G C68U | 0.000164 ± 6.5e-05 s⁻¹ | 7.92e-05 ± 2.1e-05 s⁻¹ |  |  |  |  | 
